{"source": "a protein production outcome set (Wang et al. 2014)", "experiment": "label from the status in PepcDB records"}
{"sequence": "MNKSKIAGIMAKLNAVDNQLVEDVAYVRSRDFPNQRFDHQQGYKGSYGNGQTSYSQNSQFQQPLQNNNSFSFTRNFDLASYQDLTAPIPRWNESSLTTSWHAASMESGYEFMKDDESDEFDVAKAVTKQNRAGSTLISRVARHTLIVLTDTTWVSIHNNTNLRKCRRLTEQNRPRLTEQD", "values": [{"measurement": "protein production", "result": "failed"}]}
{"sequence": "MNKVDEIEDFRFEDLEMETEKDKERMMTPTTRMSYSSSSSPSPSSASSSAASSLAAKAIRASSAHRDSSLSSAYSSPSSAPVPTPPKEVNKAYEYTSMKSLNEPKRGFWGSLASKAKAFLDEDDPNQLPQSPKRMEQSIPSATTSGTKEAGQTGRKSENPSLQRRLDAITSSLNYIGGTIGTVVEEGITAVENRTAGIIQETRKKIKKKPSLTRNQQNPEIQADLEIQLKASRDVAMAMAAKAKLLLRELKMVKSDLAFAKQRCAQLEEENKVLRENRSGDSQTDDDDLVRLQLETLLAEKARLAHENSIYTRENLYLRGVVEYHQLTMQDVVYFDEKTEEVTEVYPINVSSMSSSSDNSYNPNPSFLELK", "values": [{"measurement": "protein production", "result": "failed"}]}
{"sequence": "MNKVLINDTTLRDGEQAAGVVFTLEEKVAIAKFLDTIGVPELEVGIPAMGEEEMRAICAISNLGLKANLLAWNRAVISDIKASVACGMERVHIAIPVSGIQIAAKFHGQWRVSLQRLKDCISFAVDQGLWVAVGGEDSSRADENFLLDVALYAQEWGASRFRFCDTVGVLDPFTTYGKVKLLVSALTIPVEVHTHNDFGMATANALAGIKAGASSVNTTVIGLGERAGNAALEEVVMAIKRIYGVDMGIDTPRLLELSQLVAAASGANVPPWKAIVGENTFAHESGIHAHGVLQNPDTYEPFAPEEVGWERRLVVGKHSGRHSVSNLLEQHGIFLNPEETQSVLDAVRQQSIKKLEHHHHHH", "values": [{"measurement": "protein production", "result": "failed"}]}
{"sequence": "MNKWVITSLFAISTLSASVASALEVRYMATPQQSTWQMATNTPLECRLVHPIPNYGDAEFSSRAGKKINLDFELKMRRPMGDTRNVSLVSMPPVWRPGEGADRITNLQFFKQFDGYIGGQTAWSLLSELEKGRYPTFSYQDWQSRDQRIEVALSSVLFQQPYNEFSDCISKLLPYSFEDISFTILHYDQGTSVELNKASQKRLAQIAEYVRYNQDIDLVLVSTYTDSTDTNNNSQNLSEQRAEVLREYFKSIGLPEDRIQVQGYGKRRPIADNASPIGKDKNRRVVISLGRTQV", "values": [{"measurement": "protein production", "result": "failed"}]}
{"sequence": "MNLDLGSTVRGYESDKDTFPQSKGVSSSQKEQHSQLNQTKIAYEQRLLNDLEDMDDPLDLFLDYMIWISTSYIEVDSESGQEVLRSTMERCLIYIQDMETYRNDPRFLKIWIWYINLFLSNNFHESENTFKYMFNKGIGTKLSLFYEEFSKLLENAQFFLEAKVLLELGAENNCRPYNRLLRSLSNYEDRLREMNIVENQNSVPDSRERLKGRLIYRTAPFFIRKFLTSSLMTDDKENRANLNSNVGVGKSAPNVYQDSIVVADFKSETERLNLNSSKQPSNQRLKNGNKKTSIYADQKQSNNPVYKLINTPGRKPERIVFNFNLIYPENDEEFNTEEILAMIKGLYKVQRRGKKHTEDYTSDKNRKKRKLDVLVERRQDLPSSQPPVVPKSTRIEVFKDDDNPSQSTHHKNTQVQVQTTTSILPLKPVVDGNLAHETPVKPSLTSNASRSPTVTAFSKDAINEVFSMFNQHYSTPGALLDGDDTTTSKFNVFENFTQEFTAKNIEDLTEVKDPKQETVSQQTTSTNETNDRYERLSNSSTRPEKADYMTPIKETTETDVVPIIQTPKEQIRTEDKKSGDNTETQTQLTSTTIQSSPFLTQPEPQAEKLLQTAEHSEKSKEHYPTIIPPFTKIKNQPPVIIENPLSNNLRAKFLSEISPPLFQYNTFYNYNQELKMSSLLKKIHRVSRNENKNPIVDFKKTGDLYCIRGELGEGGYATVYLAESSQGHLRALKVEKPASVWEYYIMSQVEFRLRKSTILKSIINASALHLFLDESYLVLNYASQGTVLDLINLQREKAIDGNGIMDEYLCMFITVELMKVLEKIHEVGIIHGDLKPDNCMIRLEKPGEPLGAHYMRNGEDGWENKGIYLIDFGRSFDMTLLPPGTKFKSNWKADQQDCWEMRAGKPWSYEADYYGLAGVIHSMLFGKFIETIQLQNGRCKLKNPFKRYWKKEIWGVIFDLLLNSGQASNQALPMTEKIVEIRNLIESHLEQHAENHLRNVILSIEEELSHFQYKGKPSRRF", "values": [{"measurement": "protein production", "result": "failed"}]}
